According to patent US20130288266A1 (ROCHE DIAGNOSTICS OPERATIONS, published 2013):

B1: ssFab 4.1.15 (recombinant Fab 4.1.15 conjugated to the 17 mer oligo by sortase) (Fab, V domains shown)
VH: EVQLQESGPELVKPGTSVTISCKTSGYAFSNSWMSWVKQRPGQGLEWIGRIFPGNGDTDYNGNFRAKATLTADKSSSTAFMQLSRLTSVDSAVYFCARSRGLRQGAGFAYWGQGTLVTVSA
VL: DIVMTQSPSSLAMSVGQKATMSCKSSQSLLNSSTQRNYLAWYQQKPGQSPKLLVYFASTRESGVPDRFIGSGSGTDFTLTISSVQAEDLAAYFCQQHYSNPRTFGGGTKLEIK
notes: also called Fab-Oligo 4.1.15
B2: anti-pHER3 dual binder consisting of ssFab 7.2.32, ssFab 4.1.15 and a flexible linker with a 4xC18 spacer (linker 12 of example 2.4) (bispecific antibody, V domains shown)
VH 1: EFEVQLQESGGGLVQPKGSLQLSCAASGFTFNTYAMHWVRQAPGKGLEWVARIRTESSDYATDYADSVKDRFIISRDDSQNMLYLQMNNLKSEDTAIYYCVRSSGFDYWGQGTTLTVSSS
VL 1: DIQMTQSPSLPVSLGDQASISCRSSQSLVHDNGNTYLHWFLQKPGQSPKLLIYKVSNRFSGVPDRFGGSGSGTDFTLKISGVEAEDLGVYFCSQGTHVPTFGGGTKLEIK
VH 2: EFEVQLQESGPELVKPGTSVTISCKTSGYAFSNSWMSWVKQRPGQGLEWIGRIFPGNGDTDYNGNFRAKATLTADKSSSTAFMQLSRLTSVDSAVYFCARSRGLRQGAGFAYWGQGTLVTVSA
VL 2: not shown
notes: Two recombinant Fab-oligo conjugates hybridised on biotinylated linker 12 ((Spacer C18)2-(Biotin-dT)-(Spacer C18)2)

Assays:
[1] = target: T1, mutated HER3(Y>F) in NRG1-beta1-stimulated Hek293 cells, 14 tyrosines of the intracellular domain replaced … (UniProt P21860 20-1342, limits assumed); experiment: IHC (Ventana BenchMark XT), ssFab on 4xC18 linker, FFPE Hek293 cells
T1 construct: whole, on cells; also called mutated version of HER3 lacking the Tyr1289 phosphorylation site
Text: (§1) Hek293 cells had been transiently transfected with both HER2 and HER3 expression vectors. In one case an HER3 expression vector was used that encodes an mutated version of HER3, in which 14 tyrosines of the intracellular domain that serve as phosphorylation sites are replaced with phenylalanines (Y975F, Y1054F, Y1132F, Y1159F, Y1197F, Y1199F, Y1222F, Y1224F, Y1260F, Y1262F, Y1276F, Y1289F, Y1307F, Y1328F). Cells were fixed with formalin and embedded in paraffin according to standard protocols.
(§2) 1 μg/ml per ssFab fragment of only ssFab 7.2.32 or only ssFab 4.1.15, respectively, and an equimolar amount of 4×C18 linker, as well as a mixture of both ssFab′ fragments of ssFab 7.2.32 and ssFab 4.1.15 (both at 1 μg/ml) and an equimolar amount of 4×C18 linker, respectively, were used for detection. A biotin label within the linker molecule served as a detection tag for the streptavidin-based Ventana iVIEW DAB detection kit.

[2] = target: T2, wild-type HER3 in unstimulated Hek293 cells (transfected with HER2 and HER3) (UniProt P21860 20-1342, limits assumed); experiment: as above
T2 construct: whole, on cells; also called HER3 (unstimulated cells)
Text: as §1, §2

[3] = target: T1, mutated HER3(Y>F) in …; experiment: IHC (Ventana BenchMark XT), FFPE Hek293 cells
Experimental: The IHC experiments were performed on the BenchMark XT platform from Ventana. For the assay an anti-pHER3 dual binder was used that consisted of ssFab 7.2.32 (binding a non-phospho epitope of the intracellular domain of HER3), ssFab 4.1.15 (binding the pTyr1289 phospho-epitope of the intracellular domain of HER3) and a flexible linker. […] A biotin label within the linker molecule served as a detection tag for the streptavidin-based Ventana iVIEW DAB detection kit.
In order to test the specificity of the anti-pHER3 dual binder molecule an elaborate test system based on formalin-fixed paraffin-embedded (FFPE) Hek293 cells was used. Hek293 cells had been transiently transfected with both HER2 and HER3 expression vectors. In one case an HER3 expression vector was used that encodes an mutated version of HER3, in which 14 tyrosines of the intracellular domain that serve as phosphorylation sites are replaced with phenylalanines (Y975F, Y1054F, Y1132F, Y1159F, Y1197F, Y1199F, Y1222F, Y1224F, Y1260F, Y1262F, Y1276F, Y1289F, Y1307F, Y1328F). Cells were fixed with formalin and embedded in paraffin according to standard protocols. […]

T1 sequence (P21860 other isoform, or with tags, fused parts or gaps limits assumed, change not shown): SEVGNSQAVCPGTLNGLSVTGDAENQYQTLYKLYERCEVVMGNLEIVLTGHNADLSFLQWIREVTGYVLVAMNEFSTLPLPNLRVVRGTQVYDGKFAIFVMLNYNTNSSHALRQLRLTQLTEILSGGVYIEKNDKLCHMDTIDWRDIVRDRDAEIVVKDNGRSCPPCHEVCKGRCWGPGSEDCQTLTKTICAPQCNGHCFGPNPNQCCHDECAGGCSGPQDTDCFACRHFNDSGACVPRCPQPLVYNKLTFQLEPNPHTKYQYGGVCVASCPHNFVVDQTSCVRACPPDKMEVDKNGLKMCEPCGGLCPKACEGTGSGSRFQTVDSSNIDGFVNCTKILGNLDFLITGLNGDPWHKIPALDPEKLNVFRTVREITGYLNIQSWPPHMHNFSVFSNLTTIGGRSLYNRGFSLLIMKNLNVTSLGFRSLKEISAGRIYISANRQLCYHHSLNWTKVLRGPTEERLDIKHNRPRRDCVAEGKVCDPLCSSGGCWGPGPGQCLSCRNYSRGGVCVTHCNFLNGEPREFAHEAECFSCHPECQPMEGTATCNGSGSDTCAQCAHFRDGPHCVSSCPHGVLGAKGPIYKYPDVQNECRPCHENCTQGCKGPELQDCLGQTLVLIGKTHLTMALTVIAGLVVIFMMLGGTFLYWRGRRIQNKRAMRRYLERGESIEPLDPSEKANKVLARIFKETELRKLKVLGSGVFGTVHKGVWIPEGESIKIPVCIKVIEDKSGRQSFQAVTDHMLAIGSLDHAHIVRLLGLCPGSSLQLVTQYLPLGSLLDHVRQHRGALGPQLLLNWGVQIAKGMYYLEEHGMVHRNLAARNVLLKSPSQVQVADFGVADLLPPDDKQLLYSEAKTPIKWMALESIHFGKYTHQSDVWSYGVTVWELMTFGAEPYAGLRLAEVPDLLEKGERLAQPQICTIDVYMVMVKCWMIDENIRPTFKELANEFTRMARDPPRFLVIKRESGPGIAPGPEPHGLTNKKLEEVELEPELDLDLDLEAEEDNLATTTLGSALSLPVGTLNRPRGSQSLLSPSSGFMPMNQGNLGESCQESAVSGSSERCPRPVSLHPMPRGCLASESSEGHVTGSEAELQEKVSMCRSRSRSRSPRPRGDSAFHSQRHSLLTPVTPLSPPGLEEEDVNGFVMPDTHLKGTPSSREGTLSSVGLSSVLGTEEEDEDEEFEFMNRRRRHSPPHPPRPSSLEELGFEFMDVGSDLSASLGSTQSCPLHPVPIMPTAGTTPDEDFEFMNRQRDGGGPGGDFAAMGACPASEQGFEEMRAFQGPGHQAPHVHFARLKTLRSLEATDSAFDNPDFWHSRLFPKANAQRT
T2 sequence (P21860 20-1342 limits assumed): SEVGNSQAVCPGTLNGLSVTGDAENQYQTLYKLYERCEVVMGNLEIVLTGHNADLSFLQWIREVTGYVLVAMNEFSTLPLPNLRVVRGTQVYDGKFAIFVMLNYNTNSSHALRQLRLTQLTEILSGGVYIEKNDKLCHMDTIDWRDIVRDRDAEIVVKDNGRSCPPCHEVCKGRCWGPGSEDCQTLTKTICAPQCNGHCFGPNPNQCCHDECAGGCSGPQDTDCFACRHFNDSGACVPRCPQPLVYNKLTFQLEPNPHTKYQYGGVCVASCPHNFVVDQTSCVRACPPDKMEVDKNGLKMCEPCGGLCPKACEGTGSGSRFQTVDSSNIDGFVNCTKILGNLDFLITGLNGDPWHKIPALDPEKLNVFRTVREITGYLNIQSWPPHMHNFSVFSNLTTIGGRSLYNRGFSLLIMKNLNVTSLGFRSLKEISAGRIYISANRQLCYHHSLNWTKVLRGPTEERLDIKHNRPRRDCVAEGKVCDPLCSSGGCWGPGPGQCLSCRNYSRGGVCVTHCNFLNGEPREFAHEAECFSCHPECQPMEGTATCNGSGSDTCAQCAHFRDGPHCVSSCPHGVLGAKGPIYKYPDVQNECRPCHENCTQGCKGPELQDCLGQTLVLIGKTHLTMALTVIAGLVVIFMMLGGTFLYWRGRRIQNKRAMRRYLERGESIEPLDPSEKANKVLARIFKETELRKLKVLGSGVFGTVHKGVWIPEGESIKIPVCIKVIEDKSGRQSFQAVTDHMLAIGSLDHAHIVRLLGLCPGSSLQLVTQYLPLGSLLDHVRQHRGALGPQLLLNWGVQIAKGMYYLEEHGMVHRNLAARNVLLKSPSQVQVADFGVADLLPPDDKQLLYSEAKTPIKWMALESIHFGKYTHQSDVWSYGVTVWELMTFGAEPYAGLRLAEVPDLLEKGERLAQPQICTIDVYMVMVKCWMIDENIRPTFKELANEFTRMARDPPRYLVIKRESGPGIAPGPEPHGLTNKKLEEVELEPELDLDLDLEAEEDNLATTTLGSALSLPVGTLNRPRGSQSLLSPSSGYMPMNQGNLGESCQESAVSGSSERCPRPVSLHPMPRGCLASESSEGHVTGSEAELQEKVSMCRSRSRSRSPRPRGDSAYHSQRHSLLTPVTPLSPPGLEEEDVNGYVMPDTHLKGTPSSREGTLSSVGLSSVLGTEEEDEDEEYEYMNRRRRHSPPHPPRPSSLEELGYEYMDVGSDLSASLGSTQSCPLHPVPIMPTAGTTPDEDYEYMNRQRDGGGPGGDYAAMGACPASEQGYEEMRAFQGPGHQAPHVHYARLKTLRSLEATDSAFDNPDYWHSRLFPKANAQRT

| Binder | binding result [1] | binding result [2] | binding result [3] |
| --- | --- | --- | --- |
| B1 | no binding (tested: 1 µg/ml) | no binding (tested: 1 µg/ml) |  |
| B2 |  |  | no binding (tested: 1 µg/ml per ssFab) |
